Numbering of substitutions follows the chain as printed. Values belong to the molecule of their own block, whether it stands above or below them.
Key:
[1] = biological target: GST-hPygo2(58-84) (human) (UniProt Q9BRQ0); test: BLI; GST-Pygo2(58-84) wt or mutant loaded on GST biosensors, quenched with free GST; wt or mutant MBP-LDB1-SSBP2 in solution (0.03-30 uM); Octet RED96, 30 °C; KD from steady-state analysis
[2] = biological target: hBCL9ΔHD3-Pygo2 complex, Avi-tagged, biotinylated (human, UniProt O00512 1-1426; Q9BRQ0 1-406, lacking hBCL9(461–489) fragment, biotin on the Avi tag (BirA)); test: BLI
[3] = biological target: T1, Avi-tagged wt BCL9-Pygo2 complex, biotinylated (human, UniProt O00512 1-1426; Q9BRQ0 1-406, biotin on the Avi tag (BirA)); test: BLI; Octet RED96; biotinylated Avi-tagged BCL9-Pygo2 (wt or deletion) on SA biosensors, full-length LDB1-SSBP2 in solution at 1000, 300, 100, 30 nM; 30 °C; 20 mM Tris-HCl pH 8.0, 100 mM NaCl, 10 mM DTT, 10 mg/ml BSA; steady-state analysis; conditions: both partners purified
T1 construct: B-cell lymphoma 9 protein (BCL9), human, full length; Pygopus 2 (Pygo2), human, full length; also called Biotinylated BCL9-Pygo2; recombinant BCL9-Pygo; source: HEK293S GnTI- cells, co-transfected, purified (Flag beads, Superose 6 SEC), biotinylated with BirA; not shown: Avi, C-terminal, kept

[4] = biological target: T2, hBCL9ΔHD3-Pygo2 complex, Avi-tagged, biotinylated (human, UniProt O00512 1-1426; Q9BRQ0 1-406, lacking hBCL9(461–489) fragment, biotin on the Avi tag (BirA)); test: as above; conditions: both partners purified
T2 construct: B-cell lymphoma 9 protein (BCL9), human, full length lacking HD3 (461-489); Pygopus 2 (Pygo2), human, full length; also called hBCL9^△HD3-Pygo2; HD3-deleted BCL9; source: HEK293S GnTI- cells, co-transfected, purified (Flag beads, Superose 6 SEC), biotinylated with BirA; not shown: Avi, C-terminal, kept
T2 sequence (O00512 other isoform, or with tags, fused parts or gaps with the stated changes, chain 1 of 2): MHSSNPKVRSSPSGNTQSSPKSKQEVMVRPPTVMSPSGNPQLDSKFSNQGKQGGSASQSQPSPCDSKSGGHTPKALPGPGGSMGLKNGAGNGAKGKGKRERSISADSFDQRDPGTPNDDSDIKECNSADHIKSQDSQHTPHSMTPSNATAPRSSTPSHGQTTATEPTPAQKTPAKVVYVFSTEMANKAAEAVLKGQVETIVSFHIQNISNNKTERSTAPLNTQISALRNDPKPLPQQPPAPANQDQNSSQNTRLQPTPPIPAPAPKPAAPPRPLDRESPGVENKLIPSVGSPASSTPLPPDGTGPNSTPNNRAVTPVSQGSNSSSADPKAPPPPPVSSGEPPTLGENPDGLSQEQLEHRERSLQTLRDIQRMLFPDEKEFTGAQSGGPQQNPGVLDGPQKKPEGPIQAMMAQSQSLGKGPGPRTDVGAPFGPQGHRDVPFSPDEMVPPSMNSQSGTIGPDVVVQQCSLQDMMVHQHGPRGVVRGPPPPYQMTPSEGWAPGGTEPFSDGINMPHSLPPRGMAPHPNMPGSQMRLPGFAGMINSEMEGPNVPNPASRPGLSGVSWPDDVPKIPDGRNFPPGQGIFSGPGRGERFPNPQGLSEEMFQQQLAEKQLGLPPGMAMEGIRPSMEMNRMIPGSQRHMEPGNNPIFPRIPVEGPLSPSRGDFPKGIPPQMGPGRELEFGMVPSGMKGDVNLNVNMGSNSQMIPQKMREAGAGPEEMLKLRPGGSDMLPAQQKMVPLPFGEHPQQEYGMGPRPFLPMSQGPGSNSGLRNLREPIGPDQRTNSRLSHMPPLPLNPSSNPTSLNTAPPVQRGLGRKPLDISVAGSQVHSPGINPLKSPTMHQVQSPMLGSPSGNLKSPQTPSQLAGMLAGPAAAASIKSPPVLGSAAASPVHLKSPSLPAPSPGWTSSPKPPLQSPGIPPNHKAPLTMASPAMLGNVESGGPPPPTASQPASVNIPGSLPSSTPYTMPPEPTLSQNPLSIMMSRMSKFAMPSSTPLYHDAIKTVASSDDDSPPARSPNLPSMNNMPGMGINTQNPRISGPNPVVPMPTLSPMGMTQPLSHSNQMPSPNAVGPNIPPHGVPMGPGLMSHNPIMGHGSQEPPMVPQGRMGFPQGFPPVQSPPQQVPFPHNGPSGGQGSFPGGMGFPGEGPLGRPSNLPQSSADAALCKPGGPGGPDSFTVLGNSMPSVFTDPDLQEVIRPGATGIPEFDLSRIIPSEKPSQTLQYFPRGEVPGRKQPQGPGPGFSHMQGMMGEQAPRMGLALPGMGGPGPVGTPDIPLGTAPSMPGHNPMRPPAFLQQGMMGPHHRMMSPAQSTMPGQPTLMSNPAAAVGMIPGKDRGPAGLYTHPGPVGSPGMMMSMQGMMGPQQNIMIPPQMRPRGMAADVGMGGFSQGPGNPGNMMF
T2 sequence (Q9BRQ0 whole entry, stated change not applied, chain 2 of 2, the tested form may be a part): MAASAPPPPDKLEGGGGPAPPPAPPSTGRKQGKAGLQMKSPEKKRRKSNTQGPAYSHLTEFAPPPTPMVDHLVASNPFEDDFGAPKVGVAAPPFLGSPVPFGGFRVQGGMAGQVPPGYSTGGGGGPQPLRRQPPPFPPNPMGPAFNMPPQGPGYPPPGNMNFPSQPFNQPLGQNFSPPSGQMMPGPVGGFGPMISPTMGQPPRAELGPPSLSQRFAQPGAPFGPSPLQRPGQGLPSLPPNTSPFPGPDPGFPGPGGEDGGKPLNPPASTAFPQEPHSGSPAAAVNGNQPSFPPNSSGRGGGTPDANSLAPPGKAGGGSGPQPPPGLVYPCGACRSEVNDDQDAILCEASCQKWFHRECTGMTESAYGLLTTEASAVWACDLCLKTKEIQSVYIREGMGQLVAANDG

[5] = biological target: the molecule itself; test: crystal structure; Pygo2(58–84) peptide incubated with LDB1-SSBP2 (co-expressed, co-purified) at 5:1; hanging drop, 100 mM Li2SO4, 100 mM sodium citrate pH 5.6, 1% PEG400, 10 mM DTT, microseeding; 2.45 Å
[6] = biological target: T3, MBP-LDB1(56–285)-SSBP2(1–94) complex, SSBP2 Y72A (human, UniProt Q86U70 56-285; P81877 1-94, Y72A); test: BLI
T3 sequence 1: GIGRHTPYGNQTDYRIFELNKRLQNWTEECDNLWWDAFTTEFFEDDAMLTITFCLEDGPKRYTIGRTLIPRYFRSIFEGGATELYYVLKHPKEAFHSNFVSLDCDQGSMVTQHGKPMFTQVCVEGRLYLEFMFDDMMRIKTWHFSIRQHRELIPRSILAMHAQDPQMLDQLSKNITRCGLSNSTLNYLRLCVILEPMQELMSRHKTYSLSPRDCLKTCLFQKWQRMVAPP
T3 sequence 2: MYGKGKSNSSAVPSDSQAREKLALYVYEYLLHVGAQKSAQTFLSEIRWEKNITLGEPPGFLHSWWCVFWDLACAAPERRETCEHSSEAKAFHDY

T1 sequence (O00512 whole entry, chain 1 of 2): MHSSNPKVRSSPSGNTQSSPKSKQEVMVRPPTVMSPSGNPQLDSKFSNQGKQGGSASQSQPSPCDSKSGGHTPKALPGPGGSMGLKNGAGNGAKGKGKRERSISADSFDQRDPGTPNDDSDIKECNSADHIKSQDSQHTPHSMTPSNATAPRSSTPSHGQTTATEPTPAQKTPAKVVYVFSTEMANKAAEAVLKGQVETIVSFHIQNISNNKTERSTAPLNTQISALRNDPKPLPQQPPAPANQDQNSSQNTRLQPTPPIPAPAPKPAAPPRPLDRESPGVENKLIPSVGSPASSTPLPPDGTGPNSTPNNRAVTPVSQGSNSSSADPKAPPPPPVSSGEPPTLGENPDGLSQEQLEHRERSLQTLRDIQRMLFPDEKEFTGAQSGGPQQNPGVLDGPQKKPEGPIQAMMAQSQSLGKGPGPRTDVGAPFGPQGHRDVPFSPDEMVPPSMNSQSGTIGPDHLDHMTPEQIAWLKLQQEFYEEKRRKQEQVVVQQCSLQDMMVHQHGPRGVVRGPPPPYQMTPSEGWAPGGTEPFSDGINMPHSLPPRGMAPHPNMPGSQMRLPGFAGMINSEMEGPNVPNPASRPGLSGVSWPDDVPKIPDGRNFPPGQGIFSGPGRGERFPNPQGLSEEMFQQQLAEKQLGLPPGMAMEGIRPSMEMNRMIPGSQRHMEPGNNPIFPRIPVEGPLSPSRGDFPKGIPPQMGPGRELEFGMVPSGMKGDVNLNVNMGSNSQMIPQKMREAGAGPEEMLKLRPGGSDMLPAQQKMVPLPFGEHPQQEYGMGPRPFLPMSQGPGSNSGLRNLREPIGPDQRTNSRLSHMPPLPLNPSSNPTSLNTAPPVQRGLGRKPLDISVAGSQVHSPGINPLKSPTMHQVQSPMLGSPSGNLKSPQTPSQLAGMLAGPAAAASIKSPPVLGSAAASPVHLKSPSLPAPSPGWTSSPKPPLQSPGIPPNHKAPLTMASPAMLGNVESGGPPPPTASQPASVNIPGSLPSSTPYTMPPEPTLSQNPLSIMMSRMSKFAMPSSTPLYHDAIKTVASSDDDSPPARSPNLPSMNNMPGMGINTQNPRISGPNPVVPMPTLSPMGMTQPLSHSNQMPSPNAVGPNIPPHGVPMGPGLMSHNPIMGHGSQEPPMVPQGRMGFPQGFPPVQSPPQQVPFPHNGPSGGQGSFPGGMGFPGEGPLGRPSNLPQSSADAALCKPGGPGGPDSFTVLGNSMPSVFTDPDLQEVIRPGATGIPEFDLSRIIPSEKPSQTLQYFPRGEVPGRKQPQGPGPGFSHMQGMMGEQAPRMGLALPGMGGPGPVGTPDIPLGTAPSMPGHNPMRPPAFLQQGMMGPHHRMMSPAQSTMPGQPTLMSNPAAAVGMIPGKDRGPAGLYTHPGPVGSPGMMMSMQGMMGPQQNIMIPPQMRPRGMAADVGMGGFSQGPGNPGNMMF
T1 sequence (Q9BRQ0 whole entry, chain 2 of 2): as the sequence (Q9BRQ0 whole entry, stated change not applied, chain 2 of 2, the tested form may be a part) above

Kd [1]: 22 µM
Molecule: MBP-LDB1(56-285)-SSBP2(1-94) Y72A complex (from UniProt Q86U70 56-285; P81877 1-94)

Kd [2]: 0.039 µM
Kd [3]: 0.032 µM
binding result [4]: binds
B1: LDB1-SSBP2 complex (full-length human proteins) (complex)
chain 1: MSVGCACPGCSSKSFKLYSPKEPPNGNAFPPFHPGTMLDRDVGPTPMYPPTYLEPGIGRHTPYGNQTDYRIFELNKRLQNWTEECDNLWWDAFTTEFFEDDAMLTITFCLEDGPKRYTIGRTLIPRYFRSIFEGGATELYYVLKHPKEAFHSNFVSLDCDQGSMVTQHGKPMFTQVCVEGRLYLEFMFDDMMRIKTWHFSIRQHRELIPRSILAMHAQDPQMLDQLSKNITRCGLSNSTLNYLRLCVILEPMQELMSRHKTYSLSPRDCLKTCLFQKWQRMVAPPAEPTRQQPSKRRKRKMSGGSTMSSGGGNTNNSNSKKKSPASTFALSSQVPDVMVVGEPTLMGGEFGDEDERLITRLENTQFDAANGIDDEDSFNNSPALGANSPWNSKPPSSQESKSENPTSQASQ
chain 2: MYGKGKSNSSAVPSDSQAREKLALYVYEYLLHVGAQKSAQTFLSEIRWEKNITLGEPPGFLHSWWCVFWDLYCAAPERRETCEHSSEAKAFHDYSAAAAPSPVLGNIPPGDGMPVGPVPPGFFQPFMSPRYPGGPRPPLRIPNQALGGVPGSQPLLPSGMDPTRQQGHPNMGGPMQRMTPPRGMVPLGPQNYGGAMRPPLNALGGPGMPGMNMGPGGGRPWPNPTNANSIPYSSASPGNYVGPPGGGGPPGTPIMPSPADSTNSGDNMYTLMNAVPPGPNRPNFPMGPGSDGPMGGLGGMESHHMNGSLGSGDMDSISKNSPNNMSLSNQPGTPRDDGEMGGNFLNPFQSESYSPSMTMSV
notes: the discussion speaks of a 2:4 (LDB1:SSBP2) stoichiometry of the LDB1-SSBP2 core complex; not measured for the full-length complex; also called ChiLS; full-length LDB1-SSBP2 complex; source: HEK293S GnTI- cells, co-transfected, purified (Flag beads, Superose 6 SEC)

B2: human SSBP2(1–94), tag removed (domain or fragment, UniProt P81877 1-94, looked up)
chain: T3 sequence 2 with A72Y
notes: chain of the crystallised complex; not shown: His, N-terminal, cleaved
binding result [5]: binds

B3: human LDB1(56–285), tags removed (domain or fragment, UniProt Q86U70 56-285, looked up)
chain: T3 sequence 1
notes: chain of the crystallised complex; source: E. coli BL21 (DE3), co-expressed with SSBP2(1–94), purified (Ni-NTA, TEV cleavage, HiTrap Q, Superdex 200); not shown: His, N-terminal, cleaved; MBP, N-terminal, cleaved
binding result [5]: binds

Kd [6]: 22 µM
Molecule: LTEFAPPPTPMVDHLVASNPFEDDFGA (domain or fragment) [GST-Pygo2(58–84)]

Reference: article PMC10287724, “Structural basis of the interaction between BCL9-Pygo and LDB-SSBP complexes in assembling the Wnt enhanceosome” (Nature Communications, 2023)
